The assay addresses T1, cynomolgus monkey IL-21R, recombinant soluble (FLAG-His or Fc, not stated which) (cynomolgus monkey, UniProt G7Q0S8 41-253).
T1 construct: also called IL-21R Cy
Briefly: ForteBio Octet.

We go through 12 molecules from patent US20190270817A1 (Amgen, published 2019).

Substitutions are numbered along the chain they refer to. Names and notes keep the numbering of the source.

B1: A-3-009 (20C1.009) x IL-21 (R5Q, R76E) homodimer fusion (other, not shown: a dimerising Fc or GST)
heavy: EVQLLESGGGLVQPGGSLRLSCAASGFTFSSYDMSWVRQAPGKGLEWVSLISGGGSQTYYAESVKGRFTISRDNSKNTLYLQMNSLRAEDTAVYFCASPSGHYFYAMDVWGQGTTVTVSSQGQDQHMIRMRQLIDIVDQLKNYVNDLVPEFLPAPEDVETNCEWSAFSCFQKAQLKSANTGNNERIINVSIKKLKEKPPSTNAGRRQKHRLTCPSCDSYEKKPPKEFLERFKSLLQKMIHQHLSSRTHGSEDS
light: DIQMTQSPSSVSASVGDRVTITCRASQGISNWLAWYQQKPGKAPKLLIFAASSLQSGVPSRFSGSGSGTDFTLTISSLQPEDFATYYCQQAESFPHTFGGGTKVEIKRTVAAPSVFIFPPSDEQLKSGTASVVCLLNNFYPREAKVQWKVDNALQSGNSQESVTEQDSKDSTYSLSSTLTLSKADYEKHKVYACEVTHQGLSSPVTKSFNRGEC
Turning to B1, the Kd is over 300 nM.

B2: A-3-009 (20C1.009) x IL-21 (R5E, R76A) homodimer fusion (other, not shown: a dimerising Fc or GST)
heavy: B1 heavy with Q125E, E196A
light: B1 light
Take B2: the Kd was over 300 nM.

B3: A-3-009 (20C1.009) x IL-21 (R9E, R76A) homodimer fusion (other, not shown: a dimerising Fc or GST)
heavy: B1 heavy with Q125R, R129E, E196A
light: B1 light
Regarding B3, the Kd is over 300 nM.

B4: A-4-006 (20C1.006) x IL-21 (R5A, R76E) homodimer fusion (other, not shown: a dimerising Fc or GST)
heavy: B1 heavy with Q57N, Q125A
light: B1 light
Regarding B4, the Kd is over 300 nM.

B5: A-1-003 (20A2.003) x IL-21 (R5A, R76E) homodimer fusion (other, not shown: a dimerising Fc or GST)
heavy: not shown
light: SYELTQPPSVSVSPGQTASITCSGDKLGDKYASWYQQKPGQSPVLVIYQDRKRPSGIPERFSGSNSGNTATLTISGTQAMDEADYYCQAFESSTEVFGGGTKLTVLGQPKAAPSVTLFPPSSEELQANKATLVCLISDFYPGAVTVAWKADSSPVKAGVETTTPSKQSNNKYAASSYLSLTPEQWKSHRSYSCQVTHEGSTVEKTVAPTECS
Turning to B5, the equilibrium dissociation constant (Kd) was over 300 nM.

B6: A-1-003 (20A2.003) x IL-21 (R5E, R76A) homodimer fusion (other, not shown: a dimerising Fc or GST)
heavy: not shown
light: B5 light
Turning to B6, the Kd is over 300 nM.

B7: A-1-003 (20A2.003) x IL-21 (R5Q, R76E) homodimer fusion (other, not shown: a dimerising Fc or GST)
heavy: not shown
light: B5 light
As to B7, the Kd was over 300 nM.

B8: A-1-003 (20A2.003) x IL-21 (R9E, R76A) homodimer fusion (other, not shown: a dimerising Fc or GST)
heavy: not shown
light: B5 light
For the molecule B8, the Kd is over 300 nM.

B9: A-2-006 (22D4.006) x IL-21 (R5A, R76E) homodimer fusion (other, not shown: a dimerising Fc or GST)
heavy: EVQLVESGGSVVRPGGSLRLSCAASGFTVDDYSMSWVRQVPGKGLEWVSGINWNGGRTRYADAVKGRFTISRDSAKNSLYLQMNSLRAEDTALYYCAREFNNFESNWFDPWGQGTLVTVSSQGQDAHMIRMRQLIDIVDQLKNYVNDLVPEFLPAPEDVETNCEWSAFSCFQKAQLKSANTGNNERIINVSIKKLKEKPPSTNAGRRQKHRLTCPSCDSYEKKPPKEFLERFKSLLQKMIHQHLSSRTHGSEDS
light: SYELTQPPSVSVSPGQTARITCSGDALPKKYAYWYQQKPGQAPVLVISEDAKRPSGIPERFSGSSSGTMATLTISGAQVEDEADYYCYSTDASGNHRVFGGGTKLTVLGQPKAAPSVTLFPPSSEELQANKATLVCLISDFYPGAVTVAWKADSSPVKAGVETTTPSKQSNNKYAASSYLSLTPEQWKSHRSYSCQVTHEGSTVEKTVAPTECS
Turning to B9, the Kd was over 300 nM.

B10: A-2-006 (22D4.006) x IL-21 (R9E, R76A) homodimer fusion (other, not shown: a dimerising Fc or GST)
heavy: B9 heavy with A126R, R130E, E197A
light: B9 light
With B10, the Kd is over 300 nM.

B11: A-2-006 (22D4.006) x IL-21 (R5Q, R76E) homodimer fusion (other, not shown: a dimerising Fc or GST)
heavy: B9 heavy with A126Q
light: B9 light
As for B11, the Kd was over 300 nM.

B12: A-2-006 (22D4.006) x IL-21 (R5E, R76A) homodimer fusion (other, not shown: a dimerising Fc or GST)
heavy: B9 heavy with A126E, E197A
light: B9 light
B12: the equilibrium dissociation constant (Kd) is over 300 nM.
